The target of the assay is T1, MukB^K1114E (Escherichia coli, UniProt P22523 1-1486, K1114E).
T1 construct: E. coli MukB with K1114E; Mutant of the whole MukB-His as far as the text tells; source: E. coli FL01 (mukB 3xFLAG C3013I), purified (TALON, HiTrap Heparin, Superdex 200); not shown: His tag, C-terminal, kept
T1 sequence (looked up): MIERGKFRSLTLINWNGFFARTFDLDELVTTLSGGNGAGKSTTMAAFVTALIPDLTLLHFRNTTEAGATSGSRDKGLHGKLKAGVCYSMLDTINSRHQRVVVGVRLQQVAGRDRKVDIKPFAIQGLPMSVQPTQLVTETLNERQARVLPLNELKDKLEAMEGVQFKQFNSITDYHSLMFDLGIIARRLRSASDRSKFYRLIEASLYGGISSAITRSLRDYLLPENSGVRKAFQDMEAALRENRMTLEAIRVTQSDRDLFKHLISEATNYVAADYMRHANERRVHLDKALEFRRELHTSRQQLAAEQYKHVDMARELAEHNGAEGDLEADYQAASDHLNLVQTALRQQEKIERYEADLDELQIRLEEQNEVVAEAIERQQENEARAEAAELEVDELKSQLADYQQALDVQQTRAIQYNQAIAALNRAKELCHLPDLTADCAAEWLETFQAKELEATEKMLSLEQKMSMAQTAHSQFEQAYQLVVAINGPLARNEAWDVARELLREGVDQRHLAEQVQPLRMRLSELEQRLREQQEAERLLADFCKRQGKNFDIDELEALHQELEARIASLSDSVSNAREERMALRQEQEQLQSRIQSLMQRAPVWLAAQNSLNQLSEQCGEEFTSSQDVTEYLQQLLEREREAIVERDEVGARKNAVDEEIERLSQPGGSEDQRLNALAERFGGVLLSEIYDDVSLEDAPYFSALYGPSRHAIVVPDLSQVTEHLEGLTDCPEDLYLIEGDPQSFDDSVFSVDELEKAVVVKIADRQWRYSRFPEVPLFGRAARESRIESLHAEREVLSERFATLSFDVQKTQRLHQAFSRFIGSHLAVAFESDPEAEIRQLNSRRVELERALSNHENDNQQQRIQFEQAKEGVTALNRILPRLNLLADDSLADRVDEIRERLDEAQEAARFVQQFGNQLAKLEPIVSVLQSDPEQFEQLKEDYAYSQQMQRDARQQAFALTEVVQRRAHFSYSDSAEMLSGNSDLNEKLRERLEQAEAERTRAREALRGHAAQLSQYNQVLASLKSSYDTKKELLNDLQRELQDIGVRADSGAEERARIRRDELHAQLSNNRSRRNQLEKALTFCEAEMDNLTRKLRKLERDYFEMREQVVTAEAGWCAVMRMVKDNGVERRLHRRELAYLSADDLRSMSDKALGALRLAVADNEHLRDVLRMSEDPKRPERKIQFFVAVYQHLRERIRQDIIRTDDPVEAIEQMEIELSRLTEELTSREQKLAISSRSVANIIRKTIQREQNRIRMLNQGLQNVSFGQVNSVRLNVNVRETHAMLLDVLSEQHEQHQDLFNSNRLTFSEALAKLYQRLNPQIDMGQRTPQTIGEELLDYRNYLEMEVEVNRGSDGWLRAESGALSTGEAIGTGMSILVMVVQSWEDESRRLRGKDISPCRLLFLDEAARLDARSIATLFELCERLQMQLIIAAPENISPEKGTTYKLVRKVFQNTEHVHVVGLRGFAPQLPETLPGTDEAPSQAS
Put plainly: native gel or EMSA; BN-PAGE; MukB or MukB^HN (0-4.5 μM) with MukF (1.5 μM), MukE (3 μM) and AcpP as indicated or none; 1 mM DTT, 1 mM MgCl2, 30 min at 22 °C; 3-12% native Bis-Tris gels; AMPPNP in some samples. The conditions noted are these: both partners purified.

B1: MukF (His-MukF) (natural protein, Escherichia coli, UniProt P60293 1-440, looked up)
chain: MSEFSQTVPELVAWARKNDFSISLPVDRLSFLLAVATLNGERLDGEMSEGELVDAFRHVSDAFEQTSETIGVRANNAINDMVRQRLLNRFTSEQAEGNAIYRLTPLGIGITDYYIRQREFSTLRLSMQLSIVAGELKRAADAAEEGGDEFHWHRNVYAPLKYSVAEIFDSIDLTQRLMDEQQQQVKDDIAQLLNKDWRAAISSCELLLSETSGTLRELQDTLEAAGDKLQANLLRIQDATMTHDDLHFVDRLVFDLQSKLDRIISWGQQSIDLWIGYDRHVHKFIRTAIDMDKNRVFAQRLRQSVQTYFDEPWALTYANADRLLDMRDEEMALRDEEVTGELPEDLEYEEFNEIREQLAAIIEEQLAVYKTRQVPLDLGLVVREYLSQYPRARHFDVARIVIDQAVRLGVAQADFTGLPAKWQPINDYGAKVQAHVIDKY
notes: MukF, the kleisin of Escherichia coli MukBEF; The end of the tag is read from the printed name 'His-MukF'; also called kleisin MukF; source: E. coli C3013I (NEB), pET vector, purified (TALON, HiTrap DEAE FF, Superdex 200)
Turning to B1, the binding result is recorded as “binds”.

B2: MukE (MukE-His) (natural protein, Escherichia coli, UniProt P22524 1-234, looked up)
chain: MSSTNIEQVMPVKLAQALANPLFPALDSALRSGRHIGLDELDNHAFLMDFQEYLEEFYARYNVELIRAPEGFFYLRPRSTTLIPRSVLSELDMMVGKILCYLYLSPERLANEGIFTQQELYDELLTLADEAKLLKLVNNRSTGSDVDRQKLQEKVRSSLNRLRRLGMVWFMGHDSSKFRITESVFRFGADVRAGDDPREAQRRLIRDGEAMPIENHLQLNDETEENQPDSGEEE
notes: MukE, the KITE protein of Escherichia coli MukBEF; The end of the tag is read from the printed name 'MukE-His'; also called KITE protein MukE; source: E. coli C3013I (NEB), pET vector, purified (TALON, HiTrap DEAE FF, Superdex 200)
On to B2, for which the binding result is “binds”.

(Values after PMC8602292, “Acyl carrier protein promotes MukBEF action in Escherichia coli chromosome organization-segregation” (Nature Communications, 2021).)
